Results published in patent US20190016816A1 (APTEVO RESEARCH AND DEVELOPMENT, published 2019).

T1: human 5T4 on cells (human, UniProt Q13641 32-420)
T1 construct: also called TPBG; hu5T4
T1 sequence: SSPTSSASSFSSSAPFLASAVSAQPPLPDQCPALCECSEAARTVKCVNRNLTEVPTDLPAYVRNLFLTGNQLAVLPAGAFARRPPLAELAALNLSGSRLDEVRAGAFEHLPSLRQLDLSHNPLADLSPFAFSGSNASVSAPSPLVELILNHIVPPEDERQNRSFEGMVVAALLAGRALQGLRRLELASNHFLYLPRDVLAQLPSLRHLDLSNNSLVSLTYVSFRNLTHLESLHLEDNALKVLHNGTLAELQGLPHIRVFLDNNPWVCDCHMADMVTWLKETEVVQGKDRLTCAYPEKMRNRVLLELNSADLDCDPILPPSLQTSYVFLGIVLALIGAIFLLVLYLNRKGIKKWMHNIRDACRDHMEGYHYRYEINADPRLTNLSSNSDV


Assays:
human 5T4 on cells [1] = target: T1, human 5T4 on cells; experiment: flow cytometry, murine CT26 cells expressing human 5T4, labelled anti-human IgG secondary, MFI (mean)
human CD137 on cells [2] = target: T2, human CD137 on cells (human, UniProt Q07011 24-255); experiment: flow cytometry, MFI of the CD137 positive cells; human CD8 T cells, MFI of CD137 positive cells
T2 construct: also called 4-1BB; TNFRSF9 (CHO-K1/human CD137 cells)
T2 sequence (Q07011 24-255 limits assumed): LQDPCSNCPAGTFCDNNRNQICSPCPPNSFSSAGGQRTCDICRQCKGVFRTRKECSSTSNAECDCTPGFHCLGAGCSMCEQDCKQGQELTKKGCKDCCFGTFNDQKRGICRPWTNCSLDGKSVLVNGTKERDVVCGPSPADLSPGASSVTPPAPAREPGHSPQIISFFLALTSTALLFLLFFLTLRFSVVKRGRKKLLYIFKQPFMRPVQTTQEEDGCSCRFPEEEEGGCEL
Procedure: (§1) Following 48 h of incubation with or without CD3, human and cynomolgus PBMC were harvested, pooled, recounted and diluted in FACS buffer (PBS+0.5% BSA, 0.05% NaN₃) to a concentration of 5×10⁶ cells/mL. 50 μL (0.25×10⁶ cells) of cell solution was added to a 96-well FACS staining plate (Falcon #351190). Following 10 min of Fc-blocking in RT using Beriglobin (hIgG, 200 μg/mL), cells were washed in FACS buffer and then incubated for 1 h in 4° C. with 100 μL of the biotinylated ALG.APV-210 or negative control. The antibodies were added in a serial dilution starting either at 5 μg/mL titrating down in a 12 step ⅓ dilution down to 0.0003 μg/mL (exp 1) or 1 μg/mL titrating down in a 12 step ½ dilution down to 0.0005 μg/mL (exp 2). […] Cells were analysed for ALG.APV-210 binding using flow cytometry by gating on viable, single cells expressing CD3 and CD8. MFI values (FMO subtracted) from 2 independent experiments as well as normalized pooled data from 2 experiments and EC₅₀-values were determined and plotted using GraphPad Prism 7, non-linear regression log (agonist) vs. normalized response—variable slope, n=6 donors/group.

human 5T4 on cells [3] = target: T1, human 5T4 on cells; experiment: flow cytometry, CHO-hu5T4 cells, streptavidin-PE, normalized MFI of 2 pooled experiments
Procedure: Prior to the FACS staining, all cell lines were characterized for their 5T4 expression levels using a receptor density kit (Quantum Simply Cellular, anti-human IgG, Bangs Laboratories, Inc). Adherent cell lines were cultured according to their supplier's instructions and were harvested from their cell culture flasks using Trypsin/EDTA, counted in R10 medium in a Burker chamber, and diluted in FACS buffer (PBS+0.5% BSA, 0.05% NaN₃) to a concentration of 4×10⁶ cells/mL. 50 μL (0.20×10⁶) of cell solution was added to a 96-well FACS staining plate (Falcon #351190). Cells were incubated for 20 min in 4° C. with 50 μL of the biotinylated ALG.APV-210 (2× final concentration). The antibodies were added in a serial dilution starting at 20 μg/mL titrating down in a 12 step ½ dilution down to 0.010 μg/mL. Following 2× washing with FACS buffer, cells were incubated for 30 min in 4° C. with 100 μL of a secondary antibody (streptavidin-PE, BD #554061, diluted 1/500). […] Cells were analysed for ALG.APV-210 binding using flow cytometry (FACSVerse) by gating on single cells. MFI values (secondary antibody only subtracted) from 1 out of 2 independent experiments, as well as normalized data and EC₅₀-values of pooled data from 2 experiments were determined and plotted using GraphPad Prism 7, non-linear regression log (agonist) vs. normalized response—variable slope.

human CD137 on cells [4] = target: T2, human CD137 on cells; experiment: flow cytometry, MFI of all CD3+CD8+ cells gated from CD3-stimulated human PBMC
Procedure: as §1

[5] = target: T3, cynomolgus CD137 on cells (cynomolgus macaque, UniProt A9YYE7 24-254); experiment: flow cytometry, CD8 T cells gated from CD3-stimulated cynomolgus PBMC, biotinylated antibody + streptavidin-APC, exp 1, n=3 donors
T3 construct: whole, on cells; also called CHO-K1/cynomolgus CD137 cell line; cynomolgus monkey CD137 on CD3-stimulated primary CD8 T cells
T3 sequence (A9YYE7 entry or part of it): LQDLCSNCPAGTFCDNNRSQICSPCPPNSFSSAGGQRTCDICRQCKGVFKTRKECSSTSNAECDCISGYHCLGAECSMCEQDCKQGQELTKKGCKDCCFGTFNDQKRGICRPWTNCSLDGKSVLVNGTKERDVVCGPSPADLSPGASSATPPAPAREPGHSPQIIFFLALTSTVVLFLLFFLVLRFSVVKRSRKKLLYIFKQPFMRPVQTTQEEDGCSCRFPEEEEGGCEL
Procedure: as §1, with “control.” for “control. The antibodies were added in a serial dilution starting either at 5 μg/mL titrating down in a 12 step ⅓ dilution down to 0.0003 μg/mL (exp 1) or 1 μg/mL titrating down in a 12 step ½ dilution down to 0.0005 μg/mL (exp 2).”
In ELISA tests, the binding of biotinylated ALG.APV-210 to CD137 was similar to that of the non-biotinylated ALG.APV-210 (0.6 nM vs. 0.7 nM). The binding (EC₅₀) of the biotinylated ALG.APV-210 to its immunomodulatory target CD137 when expressed on activated primary human and cynomolgus CD8 T cells from CD3 stimulated PBMC was assessed and compared between the two species as well as to unstimulated cells. […]

Binder	EC50 (human 5T4 on cells [1])	Maximum MFI (human 5T4 on cells [1])	EC50 (human CD137 on cells [2])	EC50 (human 5T4 on cells [3])	EC50 (human CD137 on cells [4])	EC50 (read off the curve) [5]
ALG.APV-187 (bispecific antibody, Optimized ADAPTIR scFv-Fc-scFv homodimer with stabilizing disulfide in the 1210 scFv) EVQLLESGGGLVQPGGSLRLSCAASGFTFSHGSMYWVRQAPGKGLEWVSSISSGSGSTYYADSVKGRFTISHDNSKNTLYLQMNSLRAEDTAVYYCARSSYYGSYYSIDYWGQGTLVTVSSGGGGSGGGGSGGGGSGGGGSDIQMTQSPSSLSASVGDRVTITCRASQSISSYLNWYQQKPGKAPKLLIYAASSLQSGVPSRFSGSGSGTDFTLTISSLQPEDFATYYCQQYYDNLPTFGQGTKLEIKSSEPKSSDKTHTCPPCPAPEAAGAPSVFLFPPKPKDTLMISRTPEVTCVVVDVSHEDPEVKFNWYVDGVEVHNAKTKPREEQYNSTYRVVSVLTVLHQDWLNGKEYKCAVSNKALPAPIEKTISKAKGQPREPQVYTLPPSRDELTKNQVSLTCLVKGFYPSDIAVEWESNGQPENNYKTTPPVLDSDGSFFLYSKLTVDKSRWQQGNVFSCSVMHEALHNHYTQKSLSLSPGSGGGGSGGGGSGGGGSPSEVQLLESGGGLVQPGGSLRLSCAASGFTFSSYAMSWVRQAPGKCLEWVSAISGSGGSTYYADSVKGRFTISRDNSKNTLYLQMNSLRAEDTAVYYCARYYGGYYSAWMDYWGQGTLVTVSSGGGGSGGGGSGGGGSGGGGSDIQMTQSPSSLSASVGDRVTITCRASQSISSFLNWYQQKPGKAPKLLIYAASSLQSGVPSRFSGSGSGTDFTLTISSLQPEDSATYYCQQTYGYLHTFGCGTKLEIKR	2.2 nM	1730				
ALG.APV-210 (bispecific antibody, Optimized ADAPTIR scFv-Fc-scFv homodimer with stabilizing disulfide in the 1210 scFv; also called 5T4-CD137 bispecific antibody) EVQLLESGGGLVQPGGSLRLSCAASGFTFSHGSMYWVRQAPGKGLEWVSSISSGSGSTYYADSVKGRFTISHDNSKNTLYLQMNSLRAEDTAVYYCARSSYYGSYYSIDYWGQGTLVTVSSGGGGSGGGGSGGGGSGGGGSDIQMTQSPSSLSASVGDRVTITCRASQSISSYLNWYQQKPGKAPKLLIYAASSLQSGVPSRFSGSGSGTDFTLTISSLQPEDFATYYCQQYYDNLPTFGQGTKLEIKEPKSSDKTHTCPPCPAPEAAGAPSVFLFPPKPKDTLMISRTPEVTCVVVDVSHEDPEVKFNWYVDGVEVHNAKTKPREEQYNSTYRVVSVLTVLHQDWLNGKEYKCAVSNKALPAPIEKTISKAKGQPREPQVYTLPPSRDELTKNQVSLTCLVKGFYPSDIAVEWESNGQPENNYKTTPPVLDSDGSFFLYSKLTVDKSRWQQGNVFSCSVMHEALHNHYTQKSLSLSPGSGGGGSGGGGSGGGGSPSEVQLLESGGGLVQPGGSLRLSCAASGFTFSSYAMSWVRQAPGKCLEWVSAISGSGGSTYYADSVKGRFTISRDNSKNTLYLQMNSLRAEDTAVYYCARYYGGYYSAWMDYWGQGTLVTVSSGGGGSGGGGSGGGGSGGGGSDIQMTQSPSSLSASVGDRVTITCRASQSISSFLNWYQQKPGKAPKLLIYAASSLQSGVPSRFSGSGSGTDFTLTISSLQPEDSATYYCQQTYGYLHTFGCGTKLEIKR	2.7 nM	1730				
biotinylated ALG.APV-210 (bispecific antibody, also called ALG.APV-210 (biotinylated for FACS detection)) EVQLLESGGGLVQPGGSLRLSCAASGFTFSHGSMYWVRQAPGKGLEWVSSISSGSGSTYYADSVKGRFTISHDNSKNTLYLQMNSLRAEDTAVYYCARSSYYGSYYSIDYWGQGTLVTVSSGGGGSGGGGSGGGGSGGGGSDIQMTQSPSSLSASVGDRVTITCRASQSISSYLNWYQQKPGKAPKLLIYAASSLQSGVPSRFSGSGSGTDFTLTISSLQPEDFATYYCQQYYDNLPTFGQGTKLEIKEPKSSDKTHTCPPCPAPEAAGAPSVFLFPPKPKDTLMISRTPEVTCVVVDVSHEDPEVKFNWYVDGVEVHNAKTKPREEQYNSTYRVVSVLTVLHQDWLNGKEYKCAVSNKALPAPIEKTISKAKGQPREPQVYTLPPSRDELTKNQVSLTCLVKGFYPSDIAVEWESNGQPENNYKTTPPVLDSDGSFFLYSKLTVDKSRWQQGNVFSCSVMHEALHNHYTQKSLSLSPGSGGGGSGGGGSGGGGSPSEVQLLESGGGLVQPGGSLRLSCAASGFTFSSYAMSWVRQAPGKCLEWVSAISGSGGSTYYADSVKGRFTISRDNSKNTLYLQMNSLRAEDTAVYYCARYYGGYYSAWMDYWGQGTLVTVSSGGGGSGGGGSGGGGSGGGGSDIQMTQSPSSLSASVGDRVTITCRASQSISSFLNWYQQKPGKAPKLLIYAASSLQSGVPSRFSGSGSGTDFTLTISSLQPEDSATYYCQQTYGYLHTFGCGTKLEIKR			0.17 nM	23 nM	0.235 nM	~0.3 nM
